Measurements published in patent US20160074469A1.

Target: human MC1r (melanocortin receptor type 1) (human) (UniProt Q01726)
Assay: cell-based or functional assay

Chain of UniProt Q01726 (Q01726 whole entry): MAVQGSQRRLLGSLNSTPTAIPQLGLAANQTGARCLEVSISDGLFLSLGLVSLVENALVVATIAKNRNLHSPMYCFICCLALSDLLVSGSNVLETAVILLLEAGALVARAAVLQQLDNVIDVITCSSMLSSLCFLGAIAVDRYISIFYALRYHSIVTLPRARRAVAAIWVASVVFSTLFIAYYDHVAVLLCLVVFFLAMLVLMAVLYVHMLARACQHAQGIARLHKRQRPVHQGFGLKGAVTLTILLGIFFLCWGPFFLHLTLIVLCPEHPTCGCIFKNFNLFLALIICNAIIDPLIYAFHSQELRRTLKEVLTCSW

- EC50, cAMP production: 2.12 nM
- Emax (max efficacy expressed as percent of αMSH), cAMP production: 72 % of αMSH
Binder: Ac-KKKKKKSYSMEHFRWGKPV-NH2 [Ac(Lys)6-αMSH (Ac(Lys)6-Ser-Tyr-Ser-Met-Glu-His-Phe-Arg-Trp-Gly-Lys-Pro-Val-NH2)]
